Data reported in the supplement of paper PMC9112550, “Optimization of the antimicrobial peptide Bac7 by deep mutational scanning” (BMC Biology, 2022).

Test system: Escherichia coli TOP10
Assay: shrunken log2 fold change of peptide-encoding DNA abundance (4.5 h post-induction vs induction); higher = less antimicrobial activity (less host growth inhibition)
Conditions: time post-induction: 4.5 h; library: site-saturation at positions 5, 18, 19, 20
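Further: peptides expressed intracellularly from a pBAD plasmid library in pooled LB shake-flask culture, induced with 0.3% L-arabinose, DNA abundance read by NGS, three biological replicates, DESeq2 with apeglm shrinkage.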

| Sequence | shrunken log2 fold change |
| --- | --- |
| RRIRMRPPRLPRPRPRPPCLPRP | -0.157 |
| RRIRLRPPRLPRPRPRPACMPRP | 0.00459 |
| RRIRWRPPRLPRPRPRPRVMPRP | 0.275 |
| RRIRHRPPRLPRPRPRPCFGPRP | 0.104 |
| RRIRNRPPRLPRPRPRPTFIPRP | -0.279 |
| RRIRARPPRLPRPRPRPNYFPRP | -0.251 |
| RRIRIRPPRLPRPRPRPWHDPRP | -0.676 |
| RRIRIRPPRLPRPRPRPNDKPRP | -0.647 |
| RRIRGRPPRLPRPRPRPNVCPRP | -0.237 |
| RRIRLRPPRLPRPRPRPEKPPRP | 0.148 |
| RRIRDRPPRLPRPRPRPEHRPRP | -0.01 |
| RRIRRRPPRLPRPRPRPFKNPRP | 0.0357 |
| RRIRLRPPRLPRPRPRPDVMPRP | -0.269 |
| RRIRHRPPRLPRPRPRPAKVPRP | 0.00133 |
| RRIRSRPPRLPRPRPRPNVRPRP | -0.0771 |
| RRIRKRPPRLPRPRPRPYCGPRP | 0.0176 |
| RRIRNRPPRLPRPRPRPNRGPRP | 0.0523 |
| RRIRIRPPRLPRPRPRPALTPRP | 0.0227 |
| RRIRWRPPRLPRPRPRPIHAPRP | 0.0364 |
| RRIRQRPPRLPRPRPRPSIGPRP | -0.268 |
| RRIRMRPPRLPRPRPRPCPYPRP | -0.126 |
| RRIRTRPPRLPRPRPRPAAGPRP | 0.375 |

| Sequence | shrunken log2 fold change |
| --- | --- |
| RRIRMRPPRLPRPRPRPIVVPRP | 0.0203 |
| RRIRRRPPRLPRPRPRPMTQPRP | 0.176 |
| RRIRHRPPRLPRPRPRPYYNPRP | -1.28 |
| RRIRNRPPRLPRPRPRPNVTPRP | -0.361 |
| RRIRYRPPRLPRPRPRPFTMPRP | -0.558 |
| RRIRTRPPRLPRPRPRPTHQPRP | 0.926 |
| RRIRQRPPRLPRPRPRPNEEPRP | 2.87 |
| RRIRVRPPRLPRPRPRPRKCPRP | -0.0338 |
| RRIRVRPPRLPRPRPRPALDPRP | 0.357 |
| RRIRERPPRLPRPRPRPYRAPRP | 0.0532 |
| RRIRSRPPRLPRPRPRPVDPPRP | 0.00726 |
| RRIRDRPPRLPRPRPRPAFGPRP | 0.238 |
| RRIRFRPPRLPRPRPRPKMVPRP | -0.0413 |
| RRIRMRPPRLPRPRPRPQHDPRP | -0.202 |
| RRIRCRPPRLPRPRPRPEAMPRP | 0.536 |
| RRIRDRPPRLPRPRPRPDVWPRP | 0.511 |
| RRIRKRPPRLPRPRPRPFRFPRP | 0.125 |
| RRIRQRPPRLPRPRPRPRDPPRP | 0.604 |
| RRIRRRPPRLPRPRPRPANLPRP | 0.0328 |
| RRIRCRPPRLPRPRPRPYRMPRP | -0.197 |
| RRIRCRPPRLPRPRPRPNMFPRP | -0.529 |
| RRIRQRPPRLPRPRPRPHWIPRP | -0.452 |

| Sequence | shrunken log2 fold change |
| --- | --- |
| RRIRTRPPRLPRPRPRPTHCPRP | 0.0158 |
| RRIRPRPPRLPRPRPRPAARPRP | 0.727 |
| RRIRYRPPRLPRPRPRPVDPPRP | -0.0356 |
| RRIRRRPPRLPRPRPRPHIEPRP | -0.00196 |
| RRIRMRPPRLPRPRPRPTWEPRP | 0.312 |
| RRIRYRPPRLPRPRPRPDPNPRP | -0.57 |
| RRIRHRPPRLPRPRPRPDIDPRP | -0.235 |
| RRIRLRPPRLPRPRPRPMDIPRP | -0.568 |
| RRIRQRPPRLPRPRPRPSQWPRP | -0.02 |
| RRIRHRPPRLPRPRPRPMPDPRP | -0.276 |
| RRIRCRPPRLPRPRPRPKGVPRP | 0.595 |
| RRIRQRPPRLPRPRPRPNEIPRP | -0.217 |
| RRIRYRPPRLPRPRPRPTVGPRP | 0.0163 |
| RRIRMRPPRLPRPRPRPWVTPRP | -0.15 |
| RRIRRRPPRLPRPRPRPSKAPRP | -0.0721 |
| RRIRMRPPRLPRPRPRPAFFPRP | 0.403 |
| RRIRVRPPRLPRPRPRPNKGPRP | -0.47 |
| RRIRQRPPRLPRPRPRPRHRPRP | 0.16 |
| RRIRTRPPRLPRPRPRPPAQPRP | 0.608 |
| RRIRLRPPRLPRPRPRPSFFPRP | -0.207 |
| RRIRQRPPRLPRPRPRPCPFPRP | -0.505 |
| RRIRERPPRLPRPRPRPMTGPRP | -0.0422 |

| Sequence | shrunken log2 fold change |
| --- | --- |
| RRIRKRPPRLPRPRPRPTRRPRP | 0.964 |
| RRIRRRPPRLPRPRPRPFVFPRP | 0.274 |
| RRIRGRPPRLPRPRPRPYEWPRP | -0.027 |
| RRIRTRPPRLPRPRPRPRPSPRP | 0.703 |
| RRIRFRPPRLPRPRPRPFMWPRP | -0.168 |
| RRIRDRPPRLPRPRPRPVYTPRP | -0.0405 |
| RRIRTRPPRLPRPRPRPSCWPRP | 0.00851 |
| RRIRDRPPRLPRPRPRPTYNPRP | -0.365 |
| RRIRLRPPRLPRPRPRPIRYPRP | -0.272 |
| RRIRRRPPRLPRPRPRPMEYPRP | -0.0405 |
| RRIRGRPPRLPRPRPRPTDVPRP | 0.307 |
| RRIRTRPPRLPRPRPRPWAKPRP | 0.057 |
| RRIRYRPPRLPRPRPRPSWCPRP | -0.0502 |
| RRIRERPPRLPRPRPRPNKCPRP | -0.522 |
| RRIRGRPPRLPRPRPRPLCAPRP | 1.55 |
| RRIRWRPPRLPRPRPRPWYKPRP | -0.1 |
| RRIRGRPPRLPRPRPRPLYKPRP | 0.0468 |
| RRIRCRPPRLPRPRPRPTMIPRP | -0.922 |
| RRIRERPPRLPRPRPRPQVKPRP | -0.2 |
| RRIRRRPPRLPRPRPRPCHIPRP | -0.309 |
| RRIRRRPPRLPRPRPRPYEIPRP | -0.39 |
| RRIRQRPPRLPRPRPRPFNRPRP | -0.0328 |

| Sequence | shrunken log2 fold change |
| --- | --- |
| RRIRGRPPRLPRPRPRPRHLPRP | 0.221 |
| RRIRIRPPRLPRPRPRPHHQPRP | -0.41 |
| RRIRRRPPRLPRPRPRPQMFPRP | -0.25 |
| RRIRPRPPRLPRPRPRPCDQPRP | -0.758 |
| RRIRGRPPRLPRPRPRPACDPRP | 0.964 |
| RRIRCRPPRLPRPRPRPALQPRP | 0.313 |
| RRIRWRPPRLPRPRPRPWRFPRP | 0.0309 |
| RRIRKRPPRLPRPRPRPPHHPRP | 0.322 |
| RRIRHRPPRLPRPRPRPLKPPRP | 0.18 |
| RRIRRRPPRLPRPRPRPYDQPRP | -0.0875 |
| RRIRERPPRLPRPRPRPFVTPRP | -0.865 |
| RRIRFRPPRLPRPRPRPMIEPRP | 0.0675 |
| RRIRVRPPRLPRPRPRPAVVPRP | 0.213 |
| RRIRYRPPRLPRPRPRPPCRPRP | -0.211 |
| RRIRARPPRLPRPRPRPCSCPRP | 0.0516 |
| RRIRARPPRLPRPRPRPVRVPRP | 0.781 |
| RRIRCRPPRLPRPRPRPESVPRP | 0.025 |
| RRIRRRPPRLPRPRPRPNIKPRP | 0.153 |
| RRIRERPPRLPRPRPRPCADPRP | 0.0245 |
| RRIRHRPPRLPRPRPRPRRGPRP | 0.343 |
| RRIRTRPPRLPRPRPRPIKRPRP | -0.0164 |
